According to patent US20230257722:

What was measured:
Test in all cases: cell_activity
[1] = tested on: TL4412 SMARCA4 right TALE-FokI (synthetic); conditions: A549, mRNA, pair with pFL
[2] = tested on: TL4412 SMARCA4 right TALE-SEQ7 nuclease (synthetic); conditions: A549, mRNA, pair with p7L; no cleavage, binding not measured
[3] = tested on: TL4412 SMARCA4 right TALE-SEQ5 nuclease (synthetic); conditions: A549, mRNA, pair with p5L; no cleavage, binding not measured
[4] = tested on: TL4412 SMARCA4 right TALE-SEQ8 nuclease (synthetic); conditions: A549, mRNA, pair with p8L; Table 10 70.4% cleavage
[5] = tested on: TL4412 SMARCA4 right TALE-SEQ6 nuclease (synthetic); conditions: A549, mRNA, pair with p6L; Table 10 75.2% cleavage
[6] = tested on: TL4412 SMARCA4 right TALE-SEQ2 nuclease (synthetic); conditions: A549, mRNA, pair with p2L; Table 10 67.6% cleavage
[7] = tested on: TL4412 SMARCA4 right TALE-SEQ1 nuclease (synthetic); conditions: A549, mRNA, pair with p1L; Table 10 59.7% cleavage
[8] = tested on: TL4412 SMARCA4 right TALE-SEQ4 nuclease (synthetic); conditions: A549, mRNA, pair with p4L; Table 10 94.5% cleavage
[9] = tested on: TL4409 SMARCA4 left TALE-SEQ5 nuclease (synthetic); conditions: A549, mRNA, pair with p5R; no cleavage, binding not measured
[10] = tested on: TL4409 SMARCA4 left TALE-SEQ8 nuclease (synthetic); conditions: A549, mRNA, pair with p8R; Table 10 70.4% cleavage
[11] = tested on: TL4409 SMARCA4 left TALE-SEQ6 nuclease (synthetic); conditions: A549, mRNA, pair with p6R; Table 10 75.2% cleavage
[12] = tested on: TL4409 SMARCA4 left TALE-SEQ7 nuclease (synthetic); conditions: A549, mRNA, pair with p7R; no cleavage, binding not measured
[13] = tested on: TL4409 SMARCA4 left TALE-FokI (synthetic); conditions: A549, mRNA, pair with pFR
[14] = tested on: TL4409 SMARCA4 left TALE-SEQ1 nuclease (synthetic); conditions: A549, mRNA, pair with p1R; Table 10 59.7% cleavage
[15] = tested on: TL4409 SMARCA4 left TALE-SEQ4 nuclease (synthetic); conditions: A549, mRNA, pair with p4R; Table 10 94.5% cleavage
[16] = tested on: TL4409 SMARCA4 left TALE-SEQ2 nuclease (synthetic); conditions: A549, mRNA, pair with p2R; Table 10 67.6% cleavage

Sequence	activity [1] [% indels]	activity [2] [% indels]	activity [3] [% indels]	activity [4] [% indels]	activity [5] [% indels]	activity [6] [% indels]	activity [7] [% indels]	activity [8] [% indels]	activity [9] [% indels]	activity [10] [% indels]	activity [11] [% indels]	activity [12] [% indels]	activity [13] [% indels]	activity [14] [% indels]	activity [15] [% indels]	activity [16] [% indels]
ACTGAGAGAGTGGACAAGC (double strand) [SMARCA4 right half-site (top strand)]	74	0	0	38	1	8	42	87								
GGCGTGTCCCAGGCCCTTGC (double strand) [SMARCA4 left half-site]									0	38	1	0	74	42	87	8
